{"source": "paper PMC11178655", "about": "“Dosimetry and pharmacokinetics of [^177Lu]Lu-satoreotide tetraxetan in patients with progressive neuroendocrine tumours” (European Journal of Nuclear Medicine and Molecular Imaging, 2024)", "origin": "cited, not measured here", "tested_on": "patients with progressive, SSTR-positive NETs", "conditions": "cited from earlier work", "text": "Here, we fully explore the biodistribution and dosimetry of [^177Lu]Lu-satoreotide tetraxetan in a dosage-finding, phase I/II study (NCT02592707; registered October 30, 2015) of 40 patients with progressive, SSTR-positive NETs treated with [^177Lu]Lu-satoreotide tetraxetan. A plain language summary of this publication can be found in the Supplementary Information. […] Acute haematological toxicity may be a dose-limiting factor for [^177Lu]Lu-satoreotide tetraxetan, and for ^177Lu-labelled somatostatin analogues in general. There is limited correlation between absorbed radiation doses to the bone marrow and development of haematologic toxicity. Therefore, it is important to carefully monitor hematological parameters during ...", "note": "Where a SMILES comes first, the peptide text is derived from it. Bridges are numbered along the chain shown (N, C = ends). [ ]: non-standard residue; d: D form. The star is where a group is joined. DOTA = O=C(O)CN1CCN(CC(=O)O)CCN(CC(=O)*)CCN(CC(=O)O)CC1; dPhe(4-NHCONH2) = NC(=O)Nc1ccc(C[C@@H](N)C(=O)O)cc1; Dihydroorotyl(S) = O=C1C[C@@H](C(=O)*)NC(=O)N1; Phe(4-Cl) = N[C@@H](Cc1ccc(Cl)cc1)C(=O)O; Phe(4-NH2) = Nc1ccc(C[C@H](N)C(=O)O)cc1", "data": [{"smiles": "C[C@@H](O)[C@@H]1NC(=O)[C@H](CCCCN)NC(=O)[C@@H](Cc2ccc(NC(N)=O)cc2)NC(=O)[C@H](Cc2ccc(NC(=O)[C@@H]3CC(=O)NC(=O)N3)cc2)NC(=O)[C@H](NC(=O)[C@H](Cc2ccc(Cl)cc2)NC(=O)CN2CCN(CC(=O)O)CCN(CC(=O)O)CCN(CC(=O)O)CC2)CSSC[C@@H](C(=O)N[C@H](Cc2ccc(O)cc2)C(N)=O)NC1=O", "note": "[[^177Lu]Lu-satoreotide tetraxetan, metal not drawn] ({DOTA}-[Phe(4-Cl)][dC][Phe(4-NH2)](Dihydroorotyl(S))[dPhe(4-NHCONH2)]KTC[dY]-NH2; disulfide 2-7 (inferred); C-terminus assumed)", "values": [{"measurement": "Grade 3/4 kidney toxicity", "setting": "40 patients", "result": "no reported grade 3/4 kidney toxicity"}, {"measurement": "Grade 3/4 treatment-related lymphopenia", "setting": "40 patients", "result": "7.5 % of patients"}, {"measurement": "Disease control rate at 12 months", "result": 94.7, "unit": "%"}]}]}
